Test results from the RNAGym collection of RNA variant scans (doi:10.7554/elife.80360).

B1: Hairpin Ribozyme (parent)
chain: GUCCUCUUUCACGUGCGCGUGAAAGAGAGAAGUGAACCAGAGAAACACACGUUGUGGUAUAUUACCUGGUA

Variants of: B1
Test: self-cleavage, relative activity (ratio to wild type); higher = more cleavage; co-transcriptional
C4A G68A gave a self-cleavage of 0.17. Work on G40U A64C yielded a self-cleavage of 0.175. Work on G19C A31C yielded a self-cleavage of 0.143. Variant U20A C37A has a self-cleavage of 0.218. For G32U U63C, the self-cleavage was 0.268. Variant C4A C12G has a self-cleavage of 0.245. In the case of A44C C66G, the self-cleavage is reported as 0.0764. Work on A45G G68U yielded a self-cleavage of 0.223. In the case of U7C G21C, the self-cleavage is reported as 0.962. With C4A A71G the self-cleavage was 0.346. With G27U A71C the self-cleavage was 0.904. With U2G C46A the self-cleavage was 0.121. For G27U C50A, the self-cleavage was 0.155. For G15C U58G, the self-cleavage was 0.493. With U7C C65U the self-cleavage was 0.254. C10G U55A gave a self-cleavage of 0.316. A39C A61C showed a self-cleavage of 0.117. For A41G A64G, the self-cleavage was 0.326. C48U U52A showed a self-cleavage of 0.138. Variant G1U G21U has a self-cleavage of 0.109. G34C C66A showed a self-cleavage of 0.693. For A28G G34A, the self-cleavage was 1.25. Variant U9A U33C has a self-cleavage of 0.177. For G57U A59G, the self-cleavage was 0.231. With G13C G56A the self-cleavage was 0.137. With G13A G54U the self-cleavage was 0.42. U5A A39G gave a self-cleavage of 0.101. In the case of G21C C66U, the self-cleavage is reported as 0.576. Variant G27U U52A has a self-cleavage of 0.354. With C4U A64U the self-cleavage was 0.205. U7A C16G gave a self-cleavage of 0.779. Variant U7C A24G has a self-cleavage of 0.628. With A31G A71U the self-cleavage was 0.396. For G40A U70C, the self-cleavage was 0.136. Work on A11G A23U yielded a self-cleavage of 0.93. G27C C37U showed a self-cleavage of 0.0764. Variant C6A C10G has a self-cleavage of 0.377. In the case of G54A A71C, the self-cleavage is reported as 0.977. Work on A22C G42U yielded a self-cleavage of 0.239. In the case of G17U A49G, the self-cleavage is reported as 0.818. U2A U55C showed a self-cleavage of 0.153. Variant C4G G13C has a self-cleavage of 0.178. C4G A61G gave a self-cleavage of 0.098. G15C G56C gave a self-cleavage of 0.113. C4G G19C showed a self-cleavage of 0.194. With G21C U58C the self-cleavage was 0.77. In the case of U53A G69U, the self-cleavage is reported as 0.26. In the case of U2A U60C, the self-cleavage is reported as 0.542. A28U U67G gave a self-cleavage of 0.201. A45C C48G showed a self-cleavage of 0.188. Work on C16A U53C yielded a self-cleavage of 0.753. Variant U5A U8C has a self-cleavage of 0.141. In the case of C6G C10G, the self-cleavage is reported as 0.277. With A31U A45G the self-cleavage was 0.0267. With A11G G17A the self-cleavage was 1.01. C16G A30U gave a self-cleavage of 0.0915. With G32A A41U the self-cleavage was 0.396. A35C U60G gave a self-cleavage of 0.649. In the case of G54A A64C, the self-cleavage is reported as 0.152. A11U G40C showed a self-cleavage of 0.178. In the case of A11C C12U, the self-cleavage is reported as 0.766. With G13U U20C the self-cleavage was 1.03. G25U A28G gave a self-cleavage of 0.971. Variant C37G U60A has a self-cleavage of 0.197. In the case of U14G G54A, the self-cleavage is reported as 0.439. G40A A44C gave a self-cleavage of 0.161. Work on U9A A49G yielded a self-cleavage of 0.395. In the case of G68C G69C, the self-cleavage is reported as 0.206. In the case of A31U G42C, the self-cleavage is reported as 0.0816. For G1A G27A, the self-cleavage was 0.144. Work on A61C U70C yielded a self-cleavage of 0.169. U20G A61G gave a self-cleavage of 0.257. In the case of G32U U67C, the self-cleavage is reported as 0.0935. A11U A59C showed a self-cleavage of 0.137. A39U G54U gave a self-cleavage of 0.163. In the case of U9C A47C, the self-cleavage is reported as 0.149. With A41C U58G the self-cleavage was 1.18. With A24G A36U the self-cleavage was 0.397. A11C G25C showed a self-cleavage of 0.457. Work on A41C U70A yielded a self-cleavage of 0.732. Variant U7C G32A has a self-cleavage of 0.0904. Variant G15U G17C has a self-cleavage of 0.881. C6U C50A showed a self-cleavage of 0.24. A11C G68U showed a self-cleavage of 0.307. For U5G G21A, the self-cleavage was 0.17. G17C G34A gave a self-cleavage of 1.02. U33C C48U gave a self-cleavage of 0.118. With G19C U33G the self-cleavage was 0.0947. Work on A11U G32A yielded a self-cleavage of 0.165. G15C G34C gave a self-cleavage of 0.578. For U52C U63C, the self-cleavage was 0.226. Work on G51U U60A yielded a self-cleavage of 1.11. A28U G69A showed a self-cleavage of 0.137. U63G C66U gave a self-cleavage of 0.109. For U20C U53G, the self-cleavage was 0.708. Work on G29U C50G yielded a self-cleavage of 0.184. G1A C38G gave a self-cleavage of 0.157. For G27A G56A, the self-cleavage was 0.116. A22U G32A gave a self-cleavage of 0.122. For G29U U60G, the self-cleavage was 0.17. G34C A43G gave a self-cleavage of 0.0982. In the case of C10G C38G, the self-cleavage is reported as 0.133. With G29A C65U the self-cleavage was 0.145. G13A A30G gave a self-cleavage of 0.104. Variant A35U G54A has a self-cleavage of 0.197. Variant U5A U20A has a self-cleavage of 0.315. Variant A28C G42A has a self-cleavage of 0.29. For A31U G51C, the self-cleavage was 0.15. Variant A43C A47C has a self-cleavage of 0.0231. With A26G C48G the self-cleavage was 0.14. G34U G56C gave a self-cleavage of 0.409. For G21A G25U, the self-cleavage was 0.426. G13C A47C gave a self-cleavage of 0.205. With C38G U53A the self-cleavage was 0.185. Work on G34U A47C yielded a self-cleavage of 1.2. For G68A, the self-cleavage was 0.282. Work on G54C A59G yielded a self-cleavage of 0.0783. With U5C C38A the self-cleavage was 0.168. G27C A64U showed a self-cleavage of 0.184. U20G G68U showed a self-cleavage of 0.297. For A26U A36G, the self-cleavage was 0.723. For C16A U62G, the self-cleavage was 0.154. In the case of C10A G56U, the self-cleavage is reported as 0.148. Variant G42C C66A has a self-cleavage of 0.103. Work on A24C G68U yielded a self-cleavage of 0.223. In the case of U14C G32C, the self-cleavage is reported as 0.244. Variant U8A A41U has a self-cleavage of 0.843. U20C U62A showed a self-cleavage of 0.202. In the case of U5C C6G, the self-cleavage is reported as 0.138. G68A G69A showed a self-cleavage of 0.103.
